Results published in CN113480644A (UNIV NANKAI, dated 2021).
Residue numbers refer to the chain shown, from its start.

B1: PR301446 (antibody, V domains shown)
VH: QVQLVQSGAEVKKPGASVKISCKTSGYTFTEYTMYWVRQAPGQRLEWMGGINPNQGDTSYNQKFKGRATLTVDKSATTAYMELSSLRSEDTAVYYCARDGYPYYFAMDYWGQGTTVTVSS
VL: DIQMTQSPSSLSASVGDRVTITCKASQNVDTNVAWYQQKPGKAPKGLIYSASSRYSGVPSRFSGSGSGTDFTLTISSVQPEDLATYFCQQYNTYPWTFGQGTKVEIK
B2: PR301558 (antibody, V domains shown)
VH: QVQLVQSGAEVKKPGASVKLSCKASGYSFTSYWVNWVRQAPGQGLEWIGMIHPSDSETRLNQKFKDRVTITVDKSTSTAYMELSSLRSEDTAVYYCARADGYEWYFDVWGRGTLVTVSS
VL: DIVLTQSPASLAVSPGQRATITCRASESVDSYGNSFMHWYQQKPGQPPKLLIYRASNLESGIPARFSGSGSRTDFTLTINPVEANDVANYYCQQSNEDPWTFGQGTKVEIK
B3: PR301556 (antibody, V domains shown)
VH: B2 VH with L20V, I48M, I70M
VL: B2 VL
B4: PR301441 (antibody, V domains shown)
VH: B2 VH with L20V, I48M, I70M
VL: B2 VL with I62V
B5: PR301557 (antibody, V domains shown)
VH: B2 VH
VL: B2 VL with I62V
B6: PR301442 (antibody, V domains shown)
VH: B2 VH
VL: B2 VL with R72G
B7: PR301445 (antibody, V domains shown)
VH: B1 VH with Q55N
VL: B1 VL with S53H
B8: PR301565 (antibody, V domains shown)
VH: B1 VH
VL: B1 VL with S53H, V78L
B9: PR301566 (antibody, V domains shown)
VH: B1 VH
VL: B1 VL with S53H
B10: PR301568 (antibody, V domains shown)
VH: B1 VH with D99E
VL: B1 VL with S53H
B11: PR301444 (antibody, V domains shown)
VH: B1 VH with I20V, Q55N, A68V, L70I
VL: B1 VL with S53H, V78L
B12: PR301563 (antibody, V domains shown)
VH: B1 VH with Q55N
VL: B1 VL with S53H, V78L
B13: PR301567 (antibody, V domains shown)
VH: B1 VH with D99E
VL: B1 VL with S53H, V78L
B14: PR301562 (antibody, V domains shown)
VH: B1 VH with I20V, Q55N, A68V, L70I
VL: B1 VL
B15: PR301564 (antibody, V domains shown)
VH: B1 VH with Q55N
VL: B1 VL
B16: PR301561 (antibody, V domains shown)
VH: B1 VH with I20V, Q55N, A68V, L70I
VL: B1 VL with S53H
B17: PR301447 (antibody, V domains shown)
VH: B1 VH with D99E
VL: B1 VL

These binders were tested against T1, SARS-CoV-2(2019-nCoV)Spike Protein(S1 Subunit,His Tag) (SARS-CoV-2 (2019-nCoV), UniProt P0DTC2 16-685) (assay: ELISA, S1-His coated, antibody titrated).
T1 construct: also called 新冠S蛋白; S蛋白

Binder | EC50
B1 | 9.43 pM

These binders were tested against T1, SARS-CoV-2(2019-nCoV)Spike Protein(S1 …) (assay: not given).

Binder | EC50
B2 | 0.0405 nM
B3 | 0.0272 nM
B4 | 0.0154 nM
B5 | 0.0438 nM
B6 | 0.0294 nM
B7 | 0.0147 nM
B8 | 0.0143 nM
B9 | 0.0149 nM
B10 | 9.41 nM
B11 | 0.0204 nM
B12 | 0.0217 nM
B13 | 7.54 nM
B14 | 0.015 nM
B15 | 0.0154 nM
B16 | 0.022 nM
B17 | 2.22 nM
